# Biological target: ShB-IR (Shaker ShB variant with inactivation removed) (UniProt P08510)
# Assay: cell-based or functional assay
# ShB-IR (Shaker ShB variant with inactivation removed), sequence (P08510 other isoform, or with tags, fused parts or gaps mutant): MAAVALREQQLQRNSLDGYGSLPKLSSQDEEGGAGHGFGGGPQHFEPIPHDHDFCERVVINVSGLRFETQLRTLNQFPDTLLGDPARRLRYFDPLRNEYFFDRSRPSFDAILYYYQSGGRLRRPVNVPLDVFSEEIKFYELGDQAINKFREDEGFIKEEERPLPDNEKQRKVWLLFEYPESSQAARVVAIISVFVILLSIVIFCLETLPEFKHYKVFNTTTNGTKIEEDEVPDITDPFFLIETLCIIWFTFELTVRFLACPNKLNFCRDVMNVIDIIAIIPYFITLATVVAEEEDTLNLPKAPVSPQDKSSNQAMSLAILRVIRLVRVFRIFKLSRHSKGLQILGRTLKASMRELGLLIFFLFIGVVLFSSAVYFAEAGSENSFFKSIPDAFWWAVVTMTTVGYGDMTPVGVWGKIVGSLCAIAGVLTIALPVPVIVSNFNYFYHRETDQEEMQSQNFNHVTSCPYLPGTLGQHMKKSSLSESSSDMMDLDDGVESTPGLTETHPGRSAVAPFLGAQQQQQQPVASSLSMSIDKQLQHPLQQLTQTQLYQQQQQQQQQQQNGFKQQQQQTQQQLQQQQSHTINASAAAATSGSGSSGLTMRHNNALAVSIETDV
substance,measurement,value
recombinant charybdotoxin (ChTx) (from UniProt P13487 23-59) (peptide),"inhibition of ShB-IR currents by 24 nM recombinant ChTx, two-electrode voltage clamp",15%
